Where “and” joins values, the source holds several entries; their conditions need not be identical. Equal entries are not always repeated.
B1: Sima3.2 (designed binder)
chain: STNISPKQGLDKAKYFSGKWYLTHVLIKDPKIVSQFCASFTPRESDGTVKIAVYLYLAIKKTSDYAIGEGKLESSGLQYTATSKVVDKKKAVLKELDERHSYTVTVLEADDSSALTHITVREGSKDYGDYYLVLTHQKDAEPSAKVKSAVTQAGLQLSQFVGTKDLGCQYDDQFTSL
notes: not shown: N-terminal poly-histidine tag and thrombin cleavage site from pET28a(+)
B2: Sam0.7 (designed binder)
chain: LPTAEEVQKLMARYIELMDVGDIEAIVQMYADDATVEAPFGAPPIHGRERIAYFYRRMLGGGIARATLTGPVRASHNGTGAMPFRVEYVFNGQPFAMDVRVEMRFDEHGRIQTMQAYWDWVNLSVREP
notes: Designed on the ketosteroid isomerase scaffold (PDB 1OH0); Made in E. coli; The monomeric gel filtration fraction was used; not shown: N-terminal poly-histidine tag and thrombin cleavage site from pET28a(+)

Assays:
[1] = biological target: T1, Recombinant Human VEGF165 (R&D Systems, 293-VE-010/CF) (human, UniProt P15692 27-191); experiment: SPR (Biacore X100), rhVEGF165 amine-coupled to CM5 chip, design as analyte, multi-cycle kinetics, 1:1 binding assumed
T1 construct: mature; Amine-coupled to a CM5 chip for SPR, and added to the medium in the HUVEC survival assay; also called rhVEGF

[2] = biological target: VEGF (autocrine, of U937 acute myeloid leukemia cells) (UniProt P15692-4 27-191, limits assumed); experiment: cell-based or functional assay
VEGF (autocrine, of U937 acute myeloid leukemia cells), sequence (P15692 other isoform, or with tags, fused parts or gaps limits assumed): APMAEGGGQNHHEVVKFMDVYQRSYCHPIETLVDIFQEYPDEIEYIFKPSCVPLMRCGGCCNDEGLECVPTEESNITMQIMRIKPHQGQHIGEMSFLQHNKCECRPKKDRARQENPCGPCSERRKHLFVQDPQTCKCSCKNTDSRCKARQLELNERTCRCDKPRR

T1 sequence (P15692 other isoform, or with tags, fused parts or gaps): as the sequence (P15692 other isoform, or with tags, fused parts or gaps limits assumed) above

Binder | Kd [1] [nM] | IC50, proliferation of U937 cells [2]
B1 | 14 | 3.6 µg/ml and 180 nM
B2 | 190 | 8 µg/ml and 533 nM

From EP4643867A1 (Eberhard Karls Universität Tübingen (Medizinische Fakultät), dated 2025)
